Experimental data: patent publication US20260191905A1 (MODERNATX, published 2026)
Changes are numbered by the printed parent chain.

Tests used:
[1] = molecular target: T1, human GPC3 recombinant protein (human, UniProt P51654 25-559); assay: SPR (Biacore) off-rate screen, periplasmic extract over human GPC3 on CM5; R0 45.4
T1 construct: also called huGPC3; Human GPC3 protein
Procedure: (§1) Human GPC3 protein in acetate buffer, pH 5.0, was immobilized in a sensor chip CM5 (GE Healthcare; Cat. Nr. BR-1005-30; Lot. Nr.10245232) and successful immobilization was confirmed by using a commercially available human GPC3 antibody (R&D cat. nr. MAB2119) and the anti-GPC3-VHH-Fc (both at 10 μg/mL). Periplasmic extracts from the MP were diluted in Biacore Buffer (0.01 M HEPES pH 7.4, 0.15 M NaCl, 3 mM EDTA, 0.05% P20) and injected over 2 minutes at 30 μL/min. 10 μl of 10 mM NaOH/1M NaCl were injected between samples and off-rates were measured over 5 minutes. Off-rate ([…]) were calculated using BIACORE software 1:1 interaction Langmuir binding model.

[2] = molecular target: T1, human GPC3 recombinant protein; assay: SPR (Biacore) off-rate screen, periplasmic extract over human GPC3 on CM5; R0 41.0
Procedure: as §1

[3] = molecular target: T1, human GPC3 recombinant protein; assay: SPR (Biacore) off-rate screen, periplasmic extract over human GPC3 on CM5; R0 56.5
Procedure: as §1

[4] = molecular target: T1, human GPC3 recombinant protein; assay: SPR (Biacore), VHH-His over human GPC3 on CM5; fit 250 - 7.8 nM; Rmax 11.3 RU; Chi2 0.365
Procedure: (§2) Affinities of the 19 VHH-His tagged domains were then determined by BiaCore assay. Human GPC3 protein (Sino biological cat. nr. 10088-H08H-500) was immobilized on CM5 sensor chip (GE Healthcare) as antigen. Purified VHH-His tagged domains were diluted in BiaCore buffer (0.01 M HEPES pH 7.4, 0.15 M NaCl, 3 mM EDTA, 0.05% P20) to 500 nM and injected over 2 minutes at […] followed by a half dilution series to 7.8 nM. 10 μl of 10 mM NaOH/1M NaCl were injected between samples and then off-rate wash was 5 minutes.

[5] = molecular target: T2, human GPC3 on HepG2 cells (human, UniProt P51654 25-554); assay: FACS, phage-displayed clone on HepG2, well A2; same clone on A-431 (no GPC3): 1042.47
T2 construct: whole, on cells

[6] = molecular target: T2, human GPC3 on HepG2 cells; assay: FACS, periplasmic extract 1:5 + anti-c-myc + GAM-APC on HepG2, well A2; same on A-431: 0.21%
[7] = molecular target: T1, human GPC3 recombinant protein; assay: SPR (Biacore), summary table; Chi2 0.365; Profile 'Medium'; FIG. 18 prints 3.82E-09
[8] = molecular target: T2, human GPC3 on HepG2 cells; assay: FACS, periplasmic extract 1:5 + anti-c-myc + GAM-APC on HepG2, well A2; same on A-431: 753.37
[9] = molecular target: T2, human GPC3 on HepG2 cells; assay: FACS, phage-displayed clone on HepG2, well A2; same clone on A-431 (no GPC3): 0.72%
[10] = molecular target: T1, human GPC3 recombinant protein; assay: SPR (Biacore) off-rate screen, periplasmic extract over human GPC3 on CM5; R0 71.6
Procedure: as §1

[11] = molecular target: T2, human GPC3 on HepG2 cells; assay: FACS, phage-displayed clone on HepG2, well D3; same clone on A-431 (no GPC3): 1.16%
[12] = molecular target: T1, human GPC3 recombinant protein; assay: SPR (Biacore), summary table; Chi2 0.59; Profile 'Good'; FIG. 18 prints 5.24E-09
Procedure: as §2

[13] = molecular target: T1, human GPC3 recombinant protein; assay: SPR (Biacore) off-rate screen, periplasmic extract over human GPC3 on CM5; R0 47.2
Procedure: as §1

[14] = molecular target: T2, human GPC3 on HepG2 cells; assay: FACS, periplasmic extract 1:5 + anti-c-myc + GAM-APC on HepG2, well D3; same on A-431: 0.36%
[15] = molecular target: T2, human GPC3 on HepG2 cells; assay: FACS, phage-displayed clone on HepG2, well D3; same clone on A-431 (no GPC3): 1102.21
[16] = molecular target: T1, human GPC3 recombinant protein; assay: SPR (Biacore), VHH-His over human GPC3 on CM5; fit 197.5 - 26.0 nM; Rmax 14.1 RU; Chi2 0.59
Procedure: as §2

[17] = molecular target: T2, human GPC3 on HepG2 cells; assay: FACS, periplasmic extract 1:5 + anti-c-myc + GAM-APC on HepG2, well D3; same on A-431: 802.83
[18] = molecular target: T2, human GPC3 on HepG2 cells; assay: FACS, phage-displayed clone on HepG2, well C3; same clone on A-431 (no GPC3): 1100.37
[19] = molecular target: T1, human GPC3 recombinant protein; assay: SPR (Biacore), summary table; Chi2 0.43; Profile 'Good'; FIG. 18 prints 6.64E-09
Procedure: as §2

[20] = molecular target: T2, human GPC3 on HepG2 cells; assay: FACS, periplasmic extract 1:5 + anti-c-myc + GAM-APC on HepG2, well C3; same on A-431: 0.12%
[21] = molecular target: T2, human GPC3 on HepG2 cells; assay: FACS, periplasmic extract 1:5 + anti-c-myc + GAM-APC on HepG2, well C3; same on A-431: 697.44
[22] = molecular target: T1, human GPC3 recombinant protein; assay: SPR (Biacore), VHH-His over human GPC3 on CM5; fit 250 - 7.8 nM; Rmax 9.47 RU; Chi2 0.43
Procedure: as §2

[23] = molecular target: T2, human GPC3 on HepG2 cells; assay: FACS, phage-displayed clone on HepG2, well C3; same clone on A-431 (no GPC3): 1.31%
[24] = molecular target: T1, human GPC3 recombinant protein; assay: SPR (Biacore) off-rate screen, periplasmic extract over human GPC3 on CM5; R0 31.6
Procedure: as §1

[25] = molecular target: T1, human GPC3 recombinant protein; assay: SPR (Biacore) off-rate screen, periplasmic extract over human GPC3 on CM5; R0 6.06; asterisk not explained on the sheet
Procedure: as §1

[26] = molecular target: T1, human GPC3 recombinant protein; assay: SPR (Biacore) off-rate screen, periplasmic extract over human GPC3 on CM5; R0 30.5
Procedure: as §1

[27] = molecular target: T1, human GPC3 recombinant protein; assay: SPR (Biacore) off-rate screen, periplasmic extract over human GPC3 on CM5; R0 24.6
Procedure: as §1

[28] = molecular target: T1, human GPC3 recombinant protein; assay: SPR (Biacore), summary table; Chi2 0.636; Profile 'Very good'
[29] = molecular target: T1, human GPC3 recombinant protein; assay: SPR (Biacore) off-rate screen, periplasmic extract over human GPC3 on CM5; R0 107.0
Procedure: as §1

[30] = molecular target: T1, human GPC3 recombinant protein; assay: SPR (Biacore), VHH-His over human GPC3 on CM5; fit 87.8 - 17.34 nM; Rmax 38.9 RU; Chi2 0.636
Procedure: as §2

T2 sequence (P51654 25-554 limits assumed): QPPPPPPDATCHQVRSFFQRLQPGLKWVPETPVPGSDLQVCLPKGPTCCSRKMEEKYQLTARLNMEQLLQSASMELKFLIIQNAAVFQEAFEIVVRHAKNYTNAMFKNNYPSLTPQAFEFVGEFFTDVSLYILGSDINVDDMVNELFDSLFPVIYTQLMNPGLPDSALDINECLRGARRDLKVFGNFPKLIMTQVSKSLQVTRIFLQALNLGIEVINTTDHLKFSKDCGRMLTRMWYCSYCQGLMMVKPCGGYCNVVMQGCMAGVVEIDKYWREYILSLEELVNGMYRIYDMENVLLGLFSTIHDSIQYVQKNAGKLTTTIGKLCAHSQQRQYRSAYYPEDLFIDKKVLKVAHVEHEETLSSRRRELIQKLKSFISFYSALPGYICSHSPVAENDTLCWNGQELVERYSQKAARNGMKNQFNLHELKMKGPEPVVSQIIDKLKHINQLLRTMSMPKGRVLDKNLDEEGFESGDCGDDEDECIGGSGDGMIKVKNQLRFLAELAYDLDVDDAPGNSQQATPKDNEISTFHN
T1 sequence (P51654 25-559 limits assumed): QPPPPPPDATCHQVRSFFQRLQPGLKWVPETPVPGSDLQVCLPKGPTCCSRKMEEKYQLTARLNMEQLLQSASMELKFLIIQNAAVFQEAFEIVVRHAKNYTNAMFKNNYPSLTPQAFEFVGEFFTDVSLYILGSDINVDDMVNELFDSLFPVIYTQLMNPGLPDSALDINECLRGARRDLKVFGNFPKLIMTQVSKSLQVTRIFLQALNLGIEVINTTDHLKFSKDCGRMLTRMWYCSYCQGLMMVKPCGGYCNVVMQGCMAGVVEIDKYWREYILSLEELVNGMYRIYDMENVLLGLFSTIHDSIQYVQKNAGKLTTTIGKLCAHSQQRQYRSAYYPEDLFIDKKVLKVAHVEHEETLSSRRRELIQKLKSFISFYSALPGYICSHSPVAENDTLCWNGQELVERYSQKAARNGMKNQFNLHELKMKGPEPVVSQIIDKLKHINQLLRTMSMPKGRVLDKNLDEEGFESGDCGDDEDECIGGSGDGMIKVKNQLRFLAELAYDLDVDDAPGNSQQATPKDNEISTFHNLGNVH

B1: VH20 (VHH)
VHH: EVQLVESGGGLVQPGGSLRLSCAASGFTFSSYAMSWVRQAPGKEPEWISSISGSGSSTYYADSLKGRFTISRDNSKNTLYLQMNSLRAEDTAVYYCSKDPRFGEPPFDYWGQGTTVTVSS
notes: also called VHH20
koff [1]: 0.00249 s⁻¹

B2: VH34 (VHH)
VHH: B1 VHH with E1Q, Q13R, I48V, S54G, K98R, T115L
notes: also called VHH34
koff [2]: 0.00507 s⁻¹

B3: VH22 (VHH)
VHH: B1 VHH with I48V, S54G, N84D, K98R, T115L
notes: also called VHH22
koff [3]: 0.00282 s⁻¹

B4: anti-GPC3 VHH-His tagged domain VHH13 (VHH)
VHH: B1 VHH with I48V, S54G, S56G, S85R, S97A, K98R, R101M, P105R, T115L
notes: Produced from a mammalian expression vector as a His fusion; not shown: His tag
Ka [4]: 2.62e+08 M⁻¹
Kd [4]: 3.82 nM
koff [4]: 0.00538 s⁻¹
kon [4]: 1.41e+06 M⁻¹ s⁻¹
Mean FL2-A [5]: 26600
% of Binding [6]: 0.3%
Kd [7]: 3.57 nM
Mean FL4-A [8]: 752
% of Binding [9]: 61.4%
koff [10]: 0.00607 s⁻¹

B5: anti-GPC3 VHH-His tagged domain VHH5 (VHH)
VHH: B1 VHH with I48V, S54G, T58A, K98R
notes: as for B4
% of Binding [11]: 74.3%
Kd [12]: 3.68 nM
koff [13]: 0.00366 s⁻¹
% of Binding [14]: 0.5%
Mean FL2-A [15]: 57900
Ka [16]: 1.91e+08 M⁻¹
Kd [16]: 5.24 nM
koff [16]: 0.00253 s⁻¹
kon [16]: 484000 M⁻¹ s⁻¹
Mean FL4-A [17]: 812

B6: anti-GPC3 VHH-His tagged domain VHH6 (VHH)
VHH: B1 VHH with E1Q, T28I, I48V, S54G, K65E
notes: as for B4
Mean FL2-A [18]: 43500
Kd [19]: 4.34 nM
% of Binding [20]: 0.64%
Mean FL4-A [21]: 915
Ka [22]: 1.51e+08 M⁻¹
Kd [22]: 6.64 nM
koff [22]: 0.00197 s⁻¹
kon [22]: 296000 M⁻¹ s⁻¹
% of Binding [23]: 68.7%
koff [24]: 0.00221 s⁻¹

B7: VH30 (VHH)
VHH: B1 VHH with E1Q, T28I, I48V, S54G, K65E, G103F, T115L
notes: also called VHH30
koff [25]: 0.00983 s⁻¹

B8: VH25 (VHH)
VHH: B1 VHH with P45S, I48V, T115L
notes: also called VHH25
koff [26]: 0.00378 s⁻¹

B9: VH24 (VHH)
VHH: B1 VHH with I48V, S54G, S56T, K65E, T115L
notes: also called VHH24
koff [27]: 0.00367 s⁻¹

B10: anti-GPC3 VHH-His tagged domain VHH2 (VHH)
VHH: QVQLVESGGGLVQPGGSLRLSCAASGFTFSNYLMHWVRQAPGKGLEWLSNINSDGSSTYYADSVKGRFTISRDNSKNTLYLQMNSLRAEDTAVYYCTVGAFDYWGQVTTGTVSS
notes: as for B4
Kd [28]: 2.73 nM
koff [29]: 0.00184 s⁻¹
Ka [30]: 3.66e+08 M⁻¹
Kd [30]: 2.73 nM
koff [30]: 0.000967 s⁻¹
kon [30]: 354000 M⁻¹ s⁻¹
